Test results: US20080214461

Assays:
[1] = molecular target: activated factor VIII (FVIIIa): Recombinate Antihemophilic Factor activated with thrombin (UniProt P00451)
[2] = molecular target: factor X (FX) (UniProt P00742)
Sequence of UniProt P00742 (P00742 41-488): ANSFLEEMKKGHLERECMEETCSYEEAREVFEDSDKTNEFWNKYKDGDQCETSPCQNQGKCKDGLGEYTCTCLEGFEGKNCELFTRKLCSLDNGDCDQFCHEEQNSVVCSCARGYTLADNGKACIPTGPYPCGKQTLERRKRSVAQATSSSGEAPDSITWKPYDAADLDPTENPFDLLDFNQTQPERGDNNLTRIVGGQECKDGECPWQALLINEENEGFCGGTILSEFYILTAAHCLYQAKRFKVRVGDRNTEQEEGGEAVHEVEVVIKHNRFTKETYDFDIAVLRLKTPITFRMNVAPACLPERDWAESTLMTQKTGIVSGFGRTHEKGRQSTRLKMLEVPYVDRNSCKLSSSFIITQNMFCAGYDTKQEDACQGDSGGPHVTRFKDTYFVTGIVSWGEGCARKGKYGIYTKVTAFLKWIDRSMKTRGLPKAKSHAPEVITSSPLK

Sequence of plasma derived FIX (pdFIX), activated form pdFIXa (chain): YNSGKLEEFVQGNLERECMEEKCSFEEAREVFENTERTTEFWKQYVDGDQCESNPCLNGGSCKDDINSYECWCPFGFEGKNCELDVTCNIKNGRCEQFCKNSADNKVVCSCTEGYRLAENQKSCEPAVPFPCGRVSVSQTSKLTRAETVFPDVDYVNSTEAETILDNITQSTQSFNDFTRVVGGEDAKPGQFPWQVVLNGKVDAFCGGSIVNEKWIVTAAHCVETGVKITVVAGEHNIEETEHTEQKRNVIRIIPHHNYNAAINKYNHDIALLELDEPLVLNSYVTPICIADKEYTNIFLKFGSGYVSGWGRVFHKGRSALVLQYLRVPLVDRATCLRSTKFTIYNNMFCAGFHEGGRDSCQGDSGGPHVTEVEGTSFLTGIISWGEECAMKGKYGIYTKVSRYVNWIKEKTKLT
Sequence of FIX wild type (recombinant, full length, HEK 293), activated form (chain): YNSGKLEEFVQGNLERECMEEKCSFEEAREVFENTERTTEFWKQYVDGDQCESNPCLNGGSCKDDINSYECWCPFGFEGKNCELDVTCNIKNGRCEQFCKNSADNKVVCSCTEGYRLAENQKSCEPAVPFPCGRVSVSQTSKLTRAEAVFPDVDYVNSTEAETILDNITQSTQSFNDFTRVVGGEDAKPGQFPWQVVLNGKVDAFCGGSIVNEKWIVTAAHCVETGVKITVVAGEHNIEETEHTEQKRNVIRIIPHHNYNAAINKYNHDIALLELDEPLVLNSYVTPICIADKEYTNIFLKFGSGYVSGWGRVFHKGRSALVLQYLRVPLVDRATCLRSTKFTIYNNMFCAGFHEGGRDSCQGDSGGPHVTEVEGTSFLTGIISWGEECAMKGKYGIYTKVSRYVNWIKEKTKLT
Sequence of UniProt P00451 (P00451 other isoform, or with tags, fused parts or gaps): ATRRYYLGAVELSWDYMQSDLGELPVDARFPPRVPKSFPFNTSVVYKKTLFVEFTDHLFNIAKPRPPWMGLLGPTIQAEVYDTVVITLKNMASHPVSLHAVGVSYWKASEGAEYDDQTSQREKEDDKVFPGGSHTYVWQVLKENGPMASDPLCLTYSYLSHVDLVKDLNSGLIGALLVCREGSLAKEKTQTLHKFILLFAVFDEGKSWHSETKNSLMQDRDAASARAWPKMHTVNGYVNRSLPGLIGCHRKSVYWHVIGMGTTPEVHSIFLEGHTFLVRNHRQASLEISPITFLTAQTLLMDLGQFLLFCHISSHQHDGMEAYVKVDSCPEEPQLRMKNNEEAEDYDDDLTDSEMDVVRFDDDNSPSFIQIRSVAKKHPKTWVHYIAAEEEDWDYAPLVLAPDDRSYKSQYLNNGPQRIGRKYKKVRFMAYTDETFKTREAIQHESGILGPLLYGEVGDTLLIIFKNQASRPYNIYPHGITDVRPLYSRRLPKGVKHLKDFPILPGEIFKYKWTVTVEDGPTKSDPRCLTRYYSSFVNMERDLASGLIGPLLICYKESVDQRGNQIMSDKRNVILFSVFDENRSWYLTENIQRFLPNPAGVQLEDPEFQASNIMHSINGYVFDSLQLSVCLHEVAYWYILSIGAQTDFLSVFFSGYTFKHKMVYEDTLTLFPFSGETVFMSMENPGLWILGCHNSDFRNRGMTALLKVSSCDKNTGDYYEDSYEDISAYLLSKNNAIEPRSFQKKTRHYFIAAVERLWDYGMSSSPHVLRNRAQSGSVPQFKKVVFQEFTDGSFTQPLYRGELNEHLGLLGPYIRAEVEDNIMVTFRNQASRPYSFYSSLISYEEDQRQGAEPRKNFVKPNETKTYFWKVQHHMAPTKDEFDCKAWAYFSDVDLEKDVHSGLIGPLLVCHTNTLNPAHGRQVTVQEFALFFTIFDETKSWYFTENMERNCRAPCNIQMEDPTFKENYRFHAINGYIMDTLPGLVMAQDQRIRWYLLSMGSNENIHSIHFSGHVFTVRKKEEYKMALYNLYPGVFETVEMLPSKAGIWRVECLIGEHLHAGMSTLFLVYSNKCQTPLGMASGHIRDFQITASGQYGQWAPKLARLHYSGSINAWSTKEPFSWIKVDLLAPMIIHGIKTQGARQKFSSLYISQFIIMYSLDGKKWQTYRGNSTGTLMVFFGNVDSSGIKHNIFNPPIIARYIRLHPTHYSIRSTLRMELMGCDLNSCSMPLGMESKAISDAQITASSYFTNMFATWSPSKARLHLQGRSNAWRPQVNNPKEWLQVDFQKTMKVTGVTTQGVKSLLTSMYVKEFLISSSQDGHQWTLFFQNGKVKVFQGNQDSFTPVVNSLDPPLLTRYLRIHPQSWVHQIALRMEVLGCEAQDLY

FIX wild type (recombinant, full length, HEK 293), activated form
ratio kcat/KM +/- FVIIIa (FX activation) [1]: 36,695
KM (nM), FX activation with FVIIIa [2]: 11 nM
KM (nM), FX activation without FVIIIa [2]: 68 nM
kcat (10^-3 min^-1), FX activation without FVIIIa [2]: 0.000283 s⁻¹
kcat (min^-1), FX activation with FVIIIa [2]: 102 min⁻¹
kcat/KM (10^-6 nM^-1 min^-1), FX activation without FVIIIa [2]: 4200 M⁻¹ s⁻¹
kcat/KM (nM^-1 min^-1), FX activation with FVIIIa [2]: 1.5e+08 M⁻¹ s⁻¹
rate of FX activation against pdFIXa [2]: FIX-WT and FIX-Y94F/K98T/Y177F activated FX at the same rate as pdFIXa

plasma derived FIX (pdFIX), activated form pdFIXa
ratio kcat/KM +/- FVIIIa (FX activation) [1]: 52,430
KM (nM), FX activation with FVIIIa [2]: 13 nM
KM (nM), FX activation without FVIIIa [2]: 65 nM
kcat (10^-3 min^-1), FX activation without FVIIIa [2]: 0.000217 s⁻¹
kcat (min^-1), FX activation with FVIIIa [2]: 131 min⁻¹
kcat/KM (10^-6 nM^-1 min^-1), FX activation without FVIIIa [2]: 3250 M⁻¹ s⁻¹
kcat/KM (nM^-1 min^-1), FX activation with FVIIIa [2]: 1.67e+08 M⁻¹ s⁻¹
